Biological target: PMN receptor for mini TyrRS (on human PMNs) (human)
Assay: competition with ^125I-mini TyrRS on human PMNs (FIG. 10)

- fold of the dissociation constant against human mini TyrRS: < 200 fold
Substance: S. cerevisiae TyrRS (from UniProt P36421 1-394) (enzyme)

Source: US20040152079A1
